To fix the notation:
B1: [aLwHsK]: Cyclo-D-alanine-L-leucine-D-tryptophan-L-histidine-D-serine-L-lysine (peptide)
peptide: cyclo([dA]L[dW]H[dS]K)
SMILES: CC(C)C[C@@H]1NC(=O)[C@@H](C)NC(=O)[C@H](CCCCN)NC(=O)[C@@H](CO)NC(=O)[C@H](Cc2c[nH]cn2)NC(=O)[C@@H](Cc2c[nH]c3ccccc23)NC1=O
B2: [lLwAsK]: Cyclo-D-leucine-L-leucine-D-tryptophan-L-alanine-D-serine-L-lysine (peptide)
peptide: cyclo([dL]L[dW]A[dS]K)
SMILES: CC(C)C[C@@H]1NC(=O)[C@@H](CC(C)C)NC(=O)[C@H](CCCCN)NC(=O)[C@@H](CO)NC(=O)[C@H](C)NC(=O)[C@@H](Cc2c[nH]c3ccccc23)NC1=O
B3: [lLwHsA]: Cyclo-D-leucine-L-leucine-D-tryptophan-L-histidine-D-serine-L-alanine (peptide)
peptide: cyclo([dL]L[dW]H[dS]A)
SMILES: CC(C)C[C@@H]1NC(=O)[C@@H](CC(C)C)NC(=O)[C@H](C)NC(=O)[C@@H](CO)NC(=O)[C@H](Cc2c[nH]cn2)NC(=O)[C@@H](Cc2c[nH]c3ccccc23)NC1=O
B4: [lAwHsK]: Cyclo-D-leucine-L-alanine-D-tryptophan-L-histidine-D-serine-L-lysine (peptide)
peptide: cyclo([dL]A[dW]H[dS]K)
SMILES: CC(C)C[C@H]1NC(=O)[C@H](CCCCN)NC(=O)[C@@H](CO)NC(=O)[C@H](Cc2c[nH]cn2)NC(=O)[C@@H](Cc2c[nH]c3ccccc23)NC(=O)[C@H](C)NC1=O
B5: [lLwHsK]: Cyclo-D-leucine-L-leucine-D-tryptophan-L-histidine-D-serine-L-lysine (peptide)
peptide: cyclo([dL]L[dW]H[dS]K)
SMILES: CC(C)C[C@@H]1NC(=O)[C@@H](CC(C)C)NC(=O)[C@H](CCCCN)NC(=O)[C@@H](CO)NC(=O)[C@H](Cc2c[nH]cn2)NC(=O)[C@@H](Cc2c[nH]c3ccccc23)NC1=O
B6: [lLaHsK]: Cyclo-D-leucine-L-leucine-D-alanine-L-histidine-D-serine-L-lysine (peptide)
peptide: cyclo([dL]L[dA]H[dS]K)
SMILES: CC(C)C[C@@H]1NC(=O)[C@@H](CC(C)C)NC(=O)[C@H](CCCCN)NC(=O)[C@@H](CO)NC(=O)[C@H](Cc2c[nH]cn2)NC(=O)[C@@H](C)NC1=O
B7: [lLwHaK]: Cyclo-D-leucine-L-leucine-D-tryptophan-L-histidine-D-alanine-L-lysine (peptide)
peptide: cyclo([dL]L[dW]H[dA]K)
SMILES: CC(C)C[C@@H]1NC(=O)[C@@H](CC(C)C)NC(=O)[C@H](CCCCN)NC(=O)[C@@H](C)NC(=O)[C@H](Cc2c[nH]cn2)NC(=O)[C@@H](Cc2c[nH]c3ccccc23)NC1=O

Square brackets hold non-standard residues; d marks the D form.

Chain of Aβ40 (P05067 672-711 limits assumed): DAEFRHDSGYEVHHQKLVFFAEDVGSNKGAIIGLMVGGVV

The assay has as its target Aβ40 (UniProt P05067 672-711). As to the kind of experiment: cell-based or functional assay.
Regarding B1, the “Inhibition at 1:1 (ThT assay, Aβ:cyclic peptide)” value is 53% and the “Inhibition at 1:1/3 (ThT assay, Aβ:cyclic peptide)” value turned out to be 12%.

For the molecule B2, the “Inhibition at 1:1 (ThT assay, Aβ:cyclic peptide)” value came out at 73% and the “Inhibition at 1:1/3 (ThT assay, Aβ:cyclic peptide)” value is 49%.

For the molecule B3, the “Inhibition at 1:1 (ThT assay, Aβ:cyclic peptide)” value turned out to be 67% and the “Inhibition at 1:1/3 (ThT assay, Aβ:cyclic peptide)” value worked out at 48%.

On to B4, for which the “Inhibition at 1:1 (ThT assay, Aβ:cyclic peptide)” value came out at 44% and the “Inhibition at 1:1/3 (ThT assay, Aβ:cyclic peptide)” value is 3%.

For the molecule B5, the “Inhibition at 1:1 (ThT assay, Aβ:cyclic peptide)” value was 60% and the “Inhibition at 1:1/3 (ThT assay, Aβ:cyclic peptide)” value was determined as 32%.

Regarding B6, the “Inhibition at 1:1 (ThT assay, Aβ:cyclic peptide)” value worked out at 4% and the “Inhibition at 1:1/3 (ThT assay, Aβ:cyclic peptide)” value worked out at 5%.

As for B7, the “Inhibition at 1:1 (ThT assay, Aβ:cyclic peptide)” value is 56% and the “Inhibition at 1:1/3 (ThT assay, Aβ:cyclic peptide)” value was found to be 47%.

Usually Inhibition stands for the relative decrease from the control value, in per cent.

The values are drawn from patent US20170088585A1 (BAR ILAN UNIVERSITY, published 2017).
